Measurements as given in article PMC12915084, “A dsRNA Viral Transcriptional Regulator Evades Innate Immunity by Hijacking Host CoTranscription Factor DHX9”.

Tests used:
[1] = target: T1, σ3 WT (REOV outer capsid protein) (Mammalian orthoreovirus, UniProt P07939 1-365); experiment: EMSA; no shift at any σ3 concentration tested; 5 nM R-loop; without DHX9; EMSA: 5 nM R-loop, 0.5% NP-40, 150 mM NaCl, 20 mM Tris-Cl pH 8.0, 0.5 mM EDTA, 37 °C 15 min; 6% native PAGE; conditions: protein: recombinant; tags: Flag; label: 5' Cy5.5 on RNA; three-strand R-loop, DNA duplex arms around an unpaired bubble; RNA nt 1-30 pair with ssDNA-2, 3' RNA overhang 30 nt
T1 sequence: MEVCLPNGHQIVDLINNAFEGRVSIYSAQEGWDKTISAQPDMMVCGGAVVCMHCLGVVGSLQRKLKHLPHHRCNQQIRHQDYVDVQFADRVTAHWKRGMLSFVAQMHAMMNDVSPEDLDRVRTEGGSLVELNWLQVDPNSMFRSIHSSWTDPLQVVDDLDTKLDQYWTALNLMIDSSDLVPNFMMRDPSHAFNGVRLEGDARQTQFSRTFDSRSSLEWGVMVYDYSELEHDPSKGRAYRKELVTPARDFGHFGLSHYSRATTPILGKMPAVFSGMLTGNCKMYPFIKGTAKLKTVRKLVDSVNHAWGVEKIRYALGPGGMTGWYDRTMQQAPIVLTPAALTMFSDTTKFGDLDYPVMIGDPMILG

DHX9 = DHX9 (UniProt Q08211 1-1270); experiment: EMSA; shift at 20 nM DHX9; 5 nM R-loop; no ATP or Mg2+ listed in binding buffer; EMSA: 5 nM R-loop, 0.5% NP-40, 150 mM NaCl, 20 mM Tris-Cl pH 8.0, 0.5 mM EDTA, 37 °C 15 min; 6% native PAGE; conditions: protein: recombinant; tags: Flag; label: 5' Cy5.5 on RNA; three-strand R-loop, DNA duplex arms around an unpaired bubble; RNA nt 1-30 pair with ssDNA-2, 3' RNA overhang 30 nt
DHX9, sequence (Q08211 whole entry): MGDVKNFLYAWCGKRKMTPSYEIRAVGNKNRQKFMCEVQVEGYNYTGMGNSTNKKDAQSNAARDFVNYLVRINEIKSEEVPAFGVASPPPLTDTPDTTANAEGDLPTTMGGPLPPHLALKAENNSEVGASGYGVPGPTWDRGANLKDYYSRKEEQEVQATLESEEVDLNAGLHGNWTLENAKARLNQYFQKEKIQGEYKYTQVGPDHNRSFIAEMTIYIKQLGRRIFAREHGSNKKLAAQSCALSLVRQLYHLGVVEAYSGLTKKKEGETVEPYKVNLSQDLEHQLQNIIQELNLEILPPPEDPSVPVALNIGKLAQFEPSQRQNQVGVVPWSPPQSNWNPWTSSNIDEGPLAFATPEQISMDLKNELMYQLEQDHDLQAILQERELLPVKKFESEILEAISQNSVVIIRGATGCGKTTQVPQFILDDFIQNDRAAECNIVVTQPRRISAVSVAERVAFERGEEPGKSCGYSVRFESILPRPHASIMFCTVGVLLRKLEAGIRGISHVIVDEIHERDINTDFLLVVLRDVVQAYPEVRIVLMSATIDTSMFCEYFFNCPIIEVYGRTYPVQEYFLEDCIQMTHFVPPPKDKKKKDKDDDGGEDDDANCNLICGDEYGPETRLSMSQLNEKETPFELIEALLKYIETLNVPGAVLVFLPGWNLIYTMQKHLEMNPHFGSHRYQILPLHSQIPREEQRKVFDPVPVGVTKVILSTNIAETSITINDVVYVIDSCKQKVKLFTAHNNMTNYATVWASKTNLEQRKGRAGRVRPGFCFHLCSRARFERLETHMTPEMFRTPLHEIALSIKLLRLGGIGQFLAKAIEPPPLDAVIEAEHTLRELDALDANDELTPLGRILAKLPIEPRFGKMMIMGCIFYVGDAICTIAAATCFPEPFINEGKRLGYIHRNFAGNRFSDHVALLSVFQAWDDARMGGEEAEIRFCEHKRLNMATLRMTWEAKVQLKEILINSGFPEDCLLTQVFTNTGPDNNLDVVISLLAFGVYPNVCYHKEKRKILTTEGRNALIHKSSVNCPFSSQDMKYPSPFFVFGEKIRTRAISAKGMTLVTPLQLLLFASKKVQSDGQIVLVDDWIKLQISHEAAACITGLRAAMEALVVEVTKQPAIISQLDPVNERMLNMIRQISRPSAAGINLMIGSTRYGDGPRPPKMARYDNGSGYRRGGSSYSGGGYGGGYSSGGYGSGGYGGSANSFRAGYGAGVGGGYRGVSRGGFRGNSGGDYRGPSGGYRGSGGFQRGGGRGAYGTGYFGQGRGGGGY

B1: R-loop substrate with RNA 3' overhang (mixed)
DNA 1: CATTGCATATTTAAAACATGTTGGATCCCACGTTGCATGCTGATAGCCTACTAGAGCTGTATGAATTCAAATGACCTCTTATCAAGTGAC
DNA 2: GTCACTTGATAAGAGGTCATTTGAATTCATGGCTTAGAGCTTAATTGCTGAATCTGGTGCTGGGATCCAACATGTTTTAAATATGCAATG
RNA: GCACCAGAUUCAGCAAUUAAGCUCUAAGCCGCUGACGGCUCGAUGCUGAUCGUAGCAUCG
[1]
  binding result: no binding
DHX9
  binding result: binds
